Values belong to the binder of their own block, whether it stands above or below them.
Experiments:
[1] = target: T1, Histidine-rich glycoprotein (HRG), purified from human plasma (human, UniProt P04196 19-525); experiment: SPR
T1 chain: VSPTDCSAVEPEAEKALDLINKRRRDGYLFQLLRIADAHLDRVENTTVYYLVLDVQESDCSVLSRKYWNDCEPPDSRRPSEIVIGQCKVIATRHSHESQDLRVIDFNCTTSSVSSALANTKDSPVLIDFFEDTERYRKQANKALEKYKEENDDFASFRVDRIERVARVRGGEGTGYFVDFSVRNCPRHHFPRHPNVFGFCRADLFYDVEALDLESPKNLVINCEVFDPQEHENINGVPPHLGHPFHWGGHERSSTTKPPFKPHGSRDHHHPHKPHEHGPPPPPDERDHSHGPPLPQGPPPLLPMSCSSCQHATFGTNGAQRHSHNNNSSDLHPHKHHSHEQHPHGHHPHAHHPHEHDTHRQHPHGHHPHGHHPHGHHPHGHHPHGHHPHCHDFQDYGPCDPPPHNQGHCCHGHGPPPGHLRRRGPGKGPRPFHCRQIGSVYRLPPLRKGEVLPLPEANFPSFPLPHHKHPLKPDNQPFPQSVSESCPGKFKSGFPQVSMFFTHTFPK

[2] = target: T2, Histidine-rich glycoprotein (HRG), purified from human plasma (human, UniProt P04196 19-525); experiment: SPR; BIAcore; HRG purified from human plasma (5 μg/mL) immobilised on a CM5 chip; exCLEC-1A-Fc (3.125, 6.25, 12.5 or 25 μg/mL) or human recombinant exCLEC-1A flowed for 120 s; details: both partners purified
T2 construct: histidine-rich glycoprotein, human, 75 kDa plasma protein; source: purified from human plasma
T2 sequence (looked up): T1 chain

[3] = target: T2, Histidine-rich glycoprotein (HRG), …; experiment: SPR; BIAcore; exCLEC-1A-Fc fusion protein immobilised on a CM5 sensor chip; HRG flowed over; details: both partners purified

- Kd [1]: 400 nM
B1: human recombinant exCLEC-1A protein (domain or fragment)
chain: QYYQLSNTGQDTISQMEERLGNTSQELQSLQVQNIKLAGSLQHVAEKLCRELYNKAGAHRCSPCTEQWKWHGDNCYQFYKDSKSWEDCKYFCLSENSTMLKINKQEDLEFAASQSYSEFFYSYWTGLLRPDSGKAWLWMDGTPFTSELFHIIIDVTSPRSRDCVAILNGMIFSKDCKELKRCVCERRAGMVKPESLHVPPETLGEGD

- Kd [2]: 7 nM
- Kd [3]: 10 nM
B2: extracellular domain of CLEC-1A-Fc (exCLEC-1A-Fc) fusion protein (Fc fusion, UniProt Q8NC01 74-280, looked up)
chain: B1 chain
notes: extracellular domain of CLEC-1A; Source, limits and the kind of Fc are told only in the Transparent Methods (Document S1), if at all

Source: article PMC7267745, “Histidine-Rich Glycoprotein Inhibits High-Mobility Group Box-1-Mediated Pathways in Vascular Endothelial Cells through CLEC-1A” (iScience, 2020)
